According to the supplement of paper PMC10567573:
± gives the standard deviation.

Assay: protein stability index of a GFP-peptide fusion (GPS, HEK-293T) (PSI 1-6); higher = more stable
[1] = treatment: DMSO, c terminus: a fixed tail appended
[2] = treatment: MLN4924 1 uM, 8 h, c terminus: a fixed tail appended
[3] = treatment: DMSO, c terminus: native
[4] = treatment: MLN4924 1 uM, 8 h, c terminus: native
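Further: 24-mer peptide tiles fused after GFP, lentivirally expressed, FACS-sorted into six equal bins by GFP/DsRed ratio, decoded by Illumina sequencing, PSI is the read-weighted mean bin number.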

Sequence | protein stability index [1] | protein stability index [2] | protein stability index [3] | protein stability index [4]
GYRQQKAYIATQGPLAETTEDFWR [PTPRD] | 3.28 ± 0.22 | 3.36 ± 0.42 | – | –
LVWLVRELVKSGVLGADGVCMTFM [INTS3] | 2.17 ± 0.54 | 2.22 ± 0.84 | – | –
FTFPGMSLDKRQGEGLRIYWGSPE [TPRG1] | 2.25 ± 0.35 | 2.38 ± 0.53 | – | –
AQALGYYYVLEPRVVDGTPCSPDS [ADAMTS4] | 2.74 ± 0.52 | 2.7 ± 0.38 | – | –
LTEAEGWHFFCFQGEATRKLAGK [SAT2] | – | – | 2.69 ± 0.29 | 3.02 ± 0.49
FEDPRDAEDAVYGRDGYDYDGYRL [SRSF1] | 4.73 ± 0.18 | 4.8 ± 0.14 | – | –
EVAAKNQSLEGDTTKGTSEMSEKR [MLH1] | 5.15 ± 0.26 | 5.46 ± 0.56 | – | –
ALGAMWKLHKSQLSQALNGLSDRA [TRIM9] | 2.21 ± 0.29 | 2.34 ± 0.35 | – | –
GPIPSHMIHRTRKQKYFYKGGLVW [CLK3] | 2.47 ± 0.027 | 2.45 ± 0.24 | – | –
RPENRSFYLALYKQMSFLEKRGCP [TCF25] | 2.12 ± 0.3 | 2.19 ± 0.34 | – | –
CLTLATAVVQLYLALPPGAEHWTK [WAS] | 2.85 ± 0.87 | 2.77 ± 0.28 | – | –
GFCFFNSVAVAARHAQTISGHALR [HDAC6] | 2.25 ± 0.43 | 1.76 ± 0.28 | – | –
GKTAASWCLHVNNWLQVSFTAKHA [FSD1] | 3.23 ± 0.46 | 3.09 ± 0.76 | – | –
TMRYINGLDPEPLPLMDLCRRSIR [SPSB4] | 3.31 ± 0.36 | 3.42 ± 0.3 | – | –
MPCTWVMACAYAPSGCAIACGGLD [GNB5] | 2.77 ± 0.53 | 2.88 ± 0.4 | – | –
SLGGCSQDFLLFSPEVESLPVASS [NFE2L1] | 2.49 ± 0.52 | 2.74 ± 0.24 | – | –
FAIGVCTGLVGLFVDFFVRLFTQL [CLCN6] | 2.65 ± 0.52 | 2.32 ± 0.56 | – | –
FCSVIRINSTAPFEEQENYFLLCD [ZNF277] | 2.46 ± 0.7 | 1.83 ± 0.15 | – | –
KRRRKSCQACRFMKCLKVGMLKEG [ESRRG] | 2.67 ± 0.2 | 2.78 ± 0.25 | – | –
DAKARKQEIIKTTEQLIEAVNNGD [CAMK2B] | 5.27 ± 0.29 | 5.26 ± 0.19 | – | –
KLMKEILDKKVEKVTISNRLVSSP [HSP90AB1] | 2.81 ± 0.25 | 2.84 ± 0.42 | – | –
RSLNEEHSKQYRCLSFQPECSMKL [VDR] | 3.25 ± 0.26 | 3.41 ± 0.31 | – | –
HHVEREKDHSSSRPSSPRPQKASP [BTBD10] | 5.36 ± 0.28 | 5.54 ± 0.14 | – | –

Sequence | protein stability index [1] | protein stability index [2] | protein stability index [3] | protein stability index [4]
SGCLRISIQKLSNESRYMIYEFWE [NECAB1] | 2.21 ± 0.95 | 2.64 ± 0.82 | – | –
FKHPVIGVHVRRTDKVGTEAAFHP [FUT8] | 2.98 ± 0.31 | 3.13 ± 0.23 | – | –
YEADCLAAAYGGKAAPAAPPAARP [CEBPB] | 4.49 ± 0.15 | 4.6 ± 0.2 | – | –
EEALENGPKESLPVIAAPSMWTRP [ACBD3] | 4.64 ± 0.12 | 4.47 ± 0.24 | – | –
PQVFVSNKINAGMYILSPAVLRRI [GMPPB] | 2.21 ± 0.39 | 2.06 ± 0.26 | – | –
TQLFIGGVTGWCTGFIFQKVGKLA [FUNDC2] | 2.33 ± 0.39 | 2.32 ± 0.28 | – | –
WTLQRRLTRLRTASGHEPGGSAVC [PLEKHN1] | 3 ± 0.23 | 3.06 ± 0.22 | – | –
YSCACLASGSVLRLVDAVLGAEIR [HDAC6] | 3 ± 0.68 | 2.89 ± 0.66 | – | –
PVPAFQSDGTDEPESKEPVEKEEE [SMG5] | 5.57 ± 0.24 | 5.56 ± 0.24 | – | –
VNRFGTYPALASKNGKKWEILNFN [ACSBG2] | 2.81 ± 0.28 | 2.71 ± 0.49 | – | –
MPEERASKYENYFSASERLSLKRE [HESX1] | 4.41 ± 0.51 | 4.75 ± 0.31 | – | –
FQSISLRKIQFNFPYFRSDRDKRD [CLCN6] | 2.3 ± 0.34 | 2.75 ± 0.52 | – | –
LAREGVAAFYKGYVPNMLGIIPYA [SLC25A25] | 2.42 ± 0.49 | 2.38 ± 0.27 | – | –
APRFSFNDPSGSEEADFLSAETGS [IRX6] | 5.36 ± 0.14 | 5.33 ± 0.24 | – | –
IRESRLFGAVVRWAEAECQRQQLP [BTBD1] | 2.5 ± 0.16 | 2.46 ± 0.13 | – | –
NDDSADYQHFLQDCVDGLFKEVKE [DLC1] | 2.96 ± 0.5 | 3.54 ± 0.62 | – | –
FRPEMKKHSWCLKRKNPPNERTV [N4BP2L1] | – | – | 3.06 ± 0.2 | 3.04 ± 0.68
FDRKKKSISLMYGGSKRKSSFFSS [SLA] | 2.53 ± 0.22 | 2.68 ± 0.4 | – | –
SGVDECARQEGLTFFGTELAPVRQ [PBXIP1] | 4.13 ± 0.4 | 4.08 ± 0.35 | – | –
ELGGKNPAIIFEDANLDECIPATV [ALDH8A1] | 4.54 ± 0.28 | 4.72 ± 0.27 | – | –
CATDTKNVQFVFDAVTDVIIKNNL [GNAI1] | 2 ± 0.28 | 2.43 ± 0.22 | – | –
GFPGERTYNTKVYKMFASRRKQRY [LOXL2] | 2.72 ± 0.42 | 2.98 ± 0.51 | – | –
KALYETELADARRALDDTARERAK [LMNB1] | 5.191 ± 0.038 | 5.22 ± 0.26 | – | –

Sequence | protein stability index [1] | protein stability index [2] | protein stability index [3] | protein stability index [4]
AVNAHQWLDNPERWNKVKMVVSRE [SEPHS2] | 3.02 ± 0.37 | 2.67 ± 0.3 | – | –
NHAPLREQGAIPRLVQLLVRAHQD [CTNNB1] | 2.91 ± 0.23 | 2.91 ± 0.19 | – | –
DRGDYYLEGYRDNAYKDLAWKHGN [PCMTD1] | 3.18 ± 0.2 | 3.29 ± 0.19 | – | –
TAEDSNDIYILPSDNSGQVSPPES [BCL2L13] | 5.2 ± 0.26 | 5.21 ± 0.1 | – | –
PLCMAVLTTASIIQLGVTPPGYSA [SLC6A17] | 3.14 ± 0.94 | 2.94 ± 0.4 | – | –
NAGISFSVKKQGETVADVRTLPNA [MLH1] | 4.37 ± 0.46 | 4.11 ± 0.1 | – | –
DTAEVYAAGKAEVVLGNIIKKKGW [KCNAB2] | 3.71 ± 0.21 | 3.86 ± 0.11 | – | –
ERSMSENAVRQNGQLVRNDSLWHR [MFF] | 3.84 ± 0.42 | 3.69 ± 0.4 | – | –
LVELPASFRELLTFFCTNATIHGA [SCNN1D] | 2.79 ± 0.38 | 2.63 ± 0.49 | – | –
IFRDNQWVGFDDVESFKTKVSYLK [CHIT1] | 2.54 ± 0.34 | 2.81 ± 0.24 | – | –
ESSAKSKINVNEIFYDLVRQINRK [RAP1B] | 1.92 ± 0.38 | 1.96 ± 0.25 | – | –
GYGIYYFIYSTWKGRTIYLEDIYV [SAT2] | 2.9 ± 0.16 | 2.78 ± 0.43 | – | –
ATSGPPGIQPGQEPPVTMIFMGYQ [PALM] | 2.47 ± 0.24 | 2.38 ± 0.14 | – | –
GMRDADYIAAFLHVLLPVALEFQP [HDAC6] | 3.02 ± 0.47 | 2.96 ± 0.42 | – | –
DLEELSLGPRDAGTRGRLESAQAT [ARFIP2] | 5.14 ± 0.083 | 5.06 ± 0.1 | – | –
SPTSGSPRGSHSSALERLETKLHL [LURAP1L] | 3.64 ± 0.4 | 3.94 ± 0.36 | – | –
KAVMKTSVLLSWEIPENYNSAMPF [PTPRD] | 2.26 ± 0.67 | 2.26 ± 0.43 | – | –
GLSPEEKEQLSNDRETQEGKPPTA [ELOA2] | 5.6 ± 0.22 | 5.31 ± 0.46 | – | –
DPEDFEDAWKRPDALPGQSKRLAV [TLE6] | 5.08 ± 0.18 | 4.83 ± 0.29 | – | –
KVHRARKTMPKSVVGLHAASKDPR [EHMT1] | 4.1 ± 0.16 | 4.08 ± 0.31 | – | –
FLVTMANIGINGNHSLETCETTLF [PTGFR] | 2.88 ± 0.88 | 2.5 ± 1.1 | – | –
WLYYYAYKDFLWFFSKRFKSAAML [SOAT1] | 2.15 ± 0.34 | 2.29 ± 0.44 | – | –
DVKVGGSKYGIINLQSLKTPTLKV [DCAF4] | 2.62 ± 0.2 | 2.65 ± 0.28 | – | –

Sequence | protein stability index [1] | protein stability index [2] | protein stability index [3] | protein stability index [4]
HQLYTSSSHHSHSYIGLPYADHNY [KMT2E] | 2.5 ± 0.042 | 2.53 ± 0.21 | – | –
LANLSRTQLLHLGLTQGLIERLK [KLHDC10] | – | – | 2.38 ± 0.53 | 2.35 ± 0.18
EELLWRKVYYEVIQLIKTNKKHIH [SMG5] | 2.8 ± 0.59 | 2.4 ± 0.39 | – | –
SDPARYEFLWGPRAHAEIRKMSLL [MAGEA10] | 2.46 ± 0.3 | 2.49 ± 0.53 | – | –
ILIIISVIVQIKQPRKKYVQRKSD [NETO1] | 2.86 ± 0.64 | 2.52 ± 0.36 | – | –
ETKGQINNSIKDLTDGHFENILAD [SERPINB5] | 4.84 ± 0.42 | 4.9 ± 0.32 | – | –
SDYFCAMFTSELSEKGKPYVDIQG [KLHL12] | 2.53 ± 0.14 | 2.91 ± 0.27 | – | –
NGLTLLILGVIGLFTIPLLYRQHQ [RTN2] | 3.39 ± 0.37 | 2.93 ± 0.71 | – | –
QQLLPPFPSLHQSLPQNQCYMATT [EHMT1] | 3.29 ± 0.13 | 3.16 ± 0.17 | – | –
MAETVADTRRLITKPQNLNDAYGP [SNX3] | 3.95 ± 0.25 | 4.17 ± 0.15 | – | –
ALREVYAHAVLGQHSHVVRYFSAW [WEE1] | 2.36 ± 0.34 | 2.03 ± 0.3 | – | –
PEPPPVSFQPYHPLHFRGSNGMS [TENT5D] | – | – | 3.77 ± 0.29 | 3.91 ± 0.22
FNKDLVQDCGFEHLVPVIEMWADQ [CEP70] | 2.45 ± 0.45 | 2.65 ± 0.61 | – | –
ALMHVMQKRSRAIHSSDEGEDQAG [WAS] | 4.25 ± 0.27 | 4.49 ± 0.13 | – | –
LIPVPMATQIQQLLQDKQFELALQ [VPS39] | 2.31 ± 0.12 | 2.69 ± 0.29 | – | –
LELLGATYVDKKRDLLGALKHWRR [FEM1A] | 2.48 ± 0.11 | 2.62 ± 0.3 | – | –
FKAVLDGLDVLLAQEVRPRRWKLQ [PRAME] | 2.25 ± 0.19 | 2.41 ± 0.35 | – | –
GQRLAVCVPAHPPPCAWACPVPAH [CTBP1-DT] | 2.7 ± 0.39 | 2.8 ± 0.1 | – | –
WTDSEVDSSCSGQPIHLWQFLKEL [SPDEF] | 2.93 ± 0.24 | 3.1 ± 0.39 | – | –
RMTSSPSSIPRRDDFFRHESGEHF [RAD54B] | 3.67 ± 0.25 | 3.68 ± 0.14 | – | –
